± gives the uncertainty stated by the source.
Assay: protein stability index of a GFP-peptide fusion (yeast GPS) (PSI 1-4); higher = more stable; sorted into four equal gates, so the index is relative within each strain
Conditions: pdr5∆
In short: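 Mid-log yeast cultures in leucine-free medium, carrying a pooled plasmid library, were sorted into four equal gates by their GFP/Cherry fluorescence ratio. Each plasmid expressed Cherry along with GFP fused upstream of a tiled 17-residue yeast protein peptide. Plasmids recovered from each gate were PCR-amplified and Illumina-sequenced, with reads assigned to strains by barcodes. The protein stability index was obtained by summing each gate's read frequency weighted by its gate number.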

Row | Sequence | protein stability index
1 | VYPITLSTDATSADLKS [UBP6] | 2.53 ± 0.063
2 | VYREVCAACHSLDRVAW [CYT1] | 3.04 ± 0.12
3 | VYSKQATFLLTDIKDTL [MCD1] | 2.3 ± 0.076

Same assay, conditions: san1∆

Row | Sequence | protein stability index
4 | VKIGKFIPHGLKRRQVI [SRB8] | 3.11 ± 0.06
5 | VKIRATGGTRTKTPGPG [RPS14A] | 2.72 ± 0.14
6 | VKKILPLYARYINVNPQ [ECM29] | 3.06 ± 0.051
7 | VKKPQKSKTSTGKERSK [SNM1] | 3.549 ± 0.035
8 | VKKTGENEISSLLAMHK [CDC53] | 2.05 ± 0.3
9 | VKKVQLGKKGVPYVVTH [RPS4A] | 3.06 ± 0.064
10 | VKKVVKEQTEAAKKSEK [RPL34A] | 3.19 ± 0.038
11 | VKLIVMLCTLTGYQNND [YJL039C/NUP192] | 1.29 ± 0.17
12 | VKWYHFDHNDKKLSINS [PRE7] | 2.15 ± 0.082
13 | VKYASPNLNMKYRKRQL [FAS2] | 3.02 ± 0.093
14 | VKYMPEQKITEIEDGQD [RPO21] | 2.98 ± 0.098
15 | VLCTRLRLSNFFTIDHF [SIR2] | 1.5 ± 0.097
16 | VLDSMTKEELESDGRMF [SRP54] | 3.37 ± 0.051
17 | VLIDLLNWFRTTNMNVN [RGR1] | 3.19 ± 0.096
18 | VLILLHAERDLALAETL [SRP68] | 2.96 ± 0.058
19 | VLKFAAHTGATPIAGRF [RPS0A] | 2.81 ± 0.13
20 | VLKFTFTGEKPIITGST [MED8] | 2.04 ± 0.12
21 | VLKSSVYEYVIASTLGP [RPC82] | 1.23 ± 0.11
22 | VLKTLIEKFEQVPDSLD [RPN6] | 3.37 ± 0.06
23 | VLNGQKIVVVRAEALNI [RPL16B] | 3.16 ± 0.11
24 | VLPAATKKKSKFMTNST [ARP9] | 2.71 ± 0.047
25 | VLRTALVHDGLARGLRE [RPS12] | 2.77 ± 0.096
26 | VLSDDAKKLSSFDFGNE [ARP9] | 2.86 ± 0.062
27 | VLTHESLHRQQQQQQQQ [DLS1] | 2.62 ± 0.052

Row | Sequence | protein stability index
28 | VLVASAKGLQTVVVEED [RPL31A] | 2.54 ± 0.087
29 | VMDTIQEQITLYDHWDK [SSN8] | 2.63 ± 0.095
30 | VMLKGIVTALLESDVNI [SRP54] | 1.18 ± 0.14
31 | VMTVPGIDPTRIYTNSF [RPO21] | 2.59 ± 0.08
32 | VMTYKGEVLGITRFGLS [RPO31] | 3.09 ± 0.12
33 | VMYGTAYKFEEVSKDLI [RPB8] | 3.34 ± 0.044
34 | VMYNGHTGKKLMAQIFF [RPB2] | 3.08 ± 0.14
35 | VNDEEEHKQLVAEIVQN [RPC82] | 2.56 ± 0.14
36 | VNDNPDIEAGDDDDNNE [DIS3] | 2.73 ± 0.22
37 | VNIEPFNIDDEIKHGVF [LIN1] | 3.45 ± 0.14
38 | VNNGNIPSQRGTSTTHG [SIR3] | 2.78 ± 0.094
39 | VNNTRRRVYNRVLETTL [BRN1] | 2.87 ± 0.1
40 | VNRLLSVIPLKGRYAPE [RRP4] | 2.33 ± 0.15
41 | VNRSVVVSAVGEARNDI [YAR002W/NUP60] | 2.83 ± 0.041
42 | VPCDRIEKSRLFSEKTI [SNF6] | 2.62 ± 0.096
43 | VPPIASPQQFLRAHTDD [PRE2] | 2.17 ± 0.11
44 | VPPTIAQFQYTLDRNTA [RPL8A] | 1.64 ± 0.095
45 | VPPVENFPVRQWSIEIV [TAF14] | 3.2 ± 0.042
46 | VPRKFKHFIQGGSFGNR [RPL7A] | 3.13 ± 0.12
47 | VQCPTVIKLAKYPDYFP [ARP9] | 2.31 ± 0.092
48 | VQEQLSKNRIIVEADEK [RET1] | 1.65 ± 0.14
49 | VQGGNAAPSAADIKAVV [RPP2B] | 2.88 ± 0.085
50 | VQHDQILVMETSEEQTK [SWP82] | 2.94 ± 0.047
51 | VQLKDANSQIQAYEEII [YIL149C/MLP2] | 3.37 ± 0.23

Row | Sequence | protein stability index
52 | VRKAITVLFFIGVRCYE [FAS1] | 2.49 ± 0.098
53 | VRKELRGRAVVLMGKNT [RPP0] | 2.12 ± 0.15
54 | VRLGEEDMIRSVFDATS [RPN1] | 3.12 ± 0.23
55 | VRLLCRSDGMGNVLLNA [YLR335W/NUP2] | 2.02 ± 0.18
56 | VRVQRQKKILSIRLKVP [RPL8A] | 1.26 ± 0.054
57 | VSADDFVEEQNVYVLPK [PRP8] | 3.07 ± 0.12
58 | VSALDKCIKYSEKLITK [ECM29] | 1.94 ± 0.12
59 | VSDSEIIDLNLHSFTKQ [POP6] | 2.41 ± 0.061
60 | VSEVAKIMQEATQSGGV [PRE8] | 2.77 ± 0.15
61 | VSGDLNPIHVSRHFASY [FAS1] | 2.78 ± 0.079
62 | VSISTSVKPHVVEPEHM [SIR4] | 2.53 ± 0.087
63 | VSITDAPKIHILDPSTE [YMR129W/POM152] | 1.53 ± 0.061
64 | VSITPGKIEKIAQSKKK [SRP21] | 1.36 ± 0.13
65 | VSLTKRKQEREITSLRQ [YIL149C/MLP2] | 2.45 ± 0.14
66 | VSNRVAAPARAGAVAPE [RPP0] | 2.64 ± 0.11
67 | VSNSISRLGEENLPGLS [SNU114] | 1.07 ± 0.15
68 | VSPNDNNSANNNAHSSD [YMR153W/NUP53] | 2.75 ± 0.053
69 | VSPNISSASPSALTSPT [SIR3] | 2.95 ± 0.06
70 | VSQVRVVPNEKADDDSV [ASC1] | 3.06 ± 0.11
71 | VSSKPSKPESSVLQLIV [MED1] | 2.94 ± 0.073
72 | VTAKLLGFTPGELRSYL [FAS1] | 2.89 ± 0.1
73 | VTDDPIWMRGHGTYFLD [RRP4] | 3.47 ± 0.056
74 | VTDLSGKETIARVTGGM [RPS14B] | 2.79 ± 0.055
75 | VTGASQFQRLAPSLTVP [PRE2] | 1.36 ± 0.2

Row | Sequence | protein stability index
76 | VTIIPLDKIYTRPISSQ [SMC2] | 1.64 ± 0.082
77 | VTKDTKKYSSKNKYGEI [SRP68] | 2.52 ± 0.086
78 | VTLKGAKALESLASCLR [POP1] | 2.54 ± 0.078
79 | VTPEDVMTISSLEQRTL [RPC82] | 3.06 ± 0.061
80 | VTQKDICILGILDLCQL [CSI1] | 2.24 ± 0.11
81 | VTVVDTPPVVVVGVVGY [RPL3] | 1.26 ± 0.065
82 | VVDFKNKENDNVPSTKF [SNF12] | 3.04 ± 0.14
83 | VVEPEHMADAKIMPKDI [SIR4] | 3.33 ± 0.085
84 | VVFRDPYKYRLREEIFI [RPL2A] | 2.01 ± 0.088
85 | VVGVVGYVETPRGLRSL [RPL3] | 3.15 ± 0.056
86 | VVLGVEKRATSPLLESD [PUP2] | 3.15 ± 0.13
87 | VVTSSVAESFTDEADSS [SNF2] | 3.15 ± 0.075
88 | VVVAETSPEKKDGGDKP [YAR002W/NUP60] | 2.72 ± 0.13
89 | VWGSETVASSKVGYTLP [RPL4A] | 3.14 ± 0.034
90 | VYDFYGRHVATCSSDQH [YGL100W/SEH1] | 2.43 ± 0.072
91 | VYEYVIASTLGPSAMRL [RPC82] | 1.6 ± 0.14
92 | VYFGDENKVMLPRCSKE [RRI2] | 3.11 ± 0.074
93 | VYKFMSLAKSSALWSSR [ECM29] | 1.39 ± 0.2
94 | VYNLALKCAERQLTSME [NUT1] | 2.09 ± 0.07
95 | VYPITLSTDATSADLKS [UBP6] | 2.49 ± 0.078
96 | VYREVCAACHSLDRVAW [CYT1] | 2.71 ± 0.17
97 | VYSKQATFLLTDIKDTL [MCD1] | 2.23 ± 0.086

Same assay, conditions: ubr1∆

Row | Sequence | protein stability index
98 | VKIGKFIPHGLKRRQVI [SRB8] | 1.95 ± 0.078
99 | VKIRATGGTRTKTPGPG [RPS14A] | 3.33 ± 0.21
